For data set [1], the system named is Saccharomyces cerevisiae. The data set can be described thus: protein stability index of tFT-peptide fusion in wild type (PSI (0-1 scale)); higher = more stable (slower turnover). The note with it: genetic background: wild type.
The test system of data set [2] is Saccharomyces cerevisiae. Description: protein stability index of tFT-peptide fusion in deletion strain of DOA10 (PSI (0-1 scale)); higher = more stable (slower turnover). As to the method: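 MPS profiling in S. cerevisiae of two library types built from selected 12-aa C-degron peptides (IN1, IN2, LN1, LN3, VN2, R1-R5, W1-W3, Atg1 and Rpa12 C-termini): saturation mutagenesis libraries and C-terminal +1 capping libraries (13 aa). Each peptide is fused to the C-terminus of a sfGFP-mCherry timer, after a GGGS linker. Cells are FACS-sorted into 8 mCherry/sfGFP bins and sequenced. PSI runs from 0 (unstable) to 1 (stable), measured once in wild type and in the das1Δ or doa10Δ background.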

The values that follow come from the supplement of paper PMC10724198.
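Wherever protein stability index of tFT-peptide fusion in deletion strain of DOA10 is given: PSI per variant is the weighted mean of its sequencing read distribution over the sorted stability bins, counting only variants with over 10 reads summed across bins.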
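Wherever protein stability index of tFT-peptide fusion in wild type is given: PSI derived as read-weighted mean over the 8 sorting bins, only variants exceeding 10 total reads kept, mCherry placed adjacent to the peptide and sfGFP distal.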

For RSLLVLLPLYFR, the protein stability index came out at 0.344 in the data set with Saccharomyces cerevisiae [1] and 0.638 in the data set on Saccharomyces cerevisiae [2].
For RSLRDLLPLYFR, in that order: 0.507 and 0.702.
Take RSLRELLPLYFR: the protein stability index in the data set on Saccharomyces cerevisiae [1] was 0.476; in the data set on Saccharomyces cerevisiae [2], 0.698.
On the same counts, the results for RSLRHLLPLYFR are 0.45 and 0.693.
On the same counts, the results for RSLRVGLPLYFR are 0.287 and 0.665.
In the case of RSLRVKLPLYFR, the protein stability index in the data set on Saccharomyces cerevisiae [1] turned out to be 0.195; with Saccharomyces cerevisiae [2] it was 0.667.
For RSLRVLGPLYFR, in that order: 0.344 and 0.687.
On the same counts, the results for RSLRVLLDLYFR are 0.64 and 0.654.
On the same counts, the results for RSLRVLLPAYFR are 0.577 and 0.65.
Turning to RSLRVLLPHYFR, the protein stability index in the data set on Saccharomyces cerevisiae [1] turned out to be 0.663; in the data set with Saccharomyces cerevisiae [2] it was 0.683.
On the same counts, the results for RSLRVLLPLLFR are 0.371 and 0.661.
As to RSLRVLLPLYFP, the protein stability index in the data set with Saccharomyces cerevisiae [1] was 0.634; in the data set with Saccharomyces cerevisiae [2], 0.657.
For RSLRVLLPLYFRC, in that order: 0.218 and 0.476.
RSLRVLLPLYFRY: the protein stability index in the data set on Saccharomyces cerevisiae [1] was 0.259; with Saccharomyces cerevisiae [2], 0.606.
As to RSLRVLLPMYFR, the protein stability index in the data set with Saccharomyces cerevisiae [1] was 0.334; in the data set on Saccharomyces cerevisiae [2], 0.658.
On the same counts, the results for RSLRVLLPNYFR are 0.64 and 0.673.
On the same counts, the results for RSLRVLLPRYFR are 0.637 and 0.664.
On the same counts, the results for RSLRVLLPVYFR are 0.278 and 0.632.
For RSLRVLLPWYFR, the values for the protein stability index in the data set with Saccharomyces cerevisiae [1] and with Saccharomyces cerevisiae [2] were 0.606 and 0.666, respectively.
For RSLRVLPPLYFR, in that order: 0.273 and 0.697.
In the case of RSLRVLTPLYFR, the protein stability index in the data set on Saccharomyces cerevisiae [1] turned out to be 0.246; in the data set with Saccharomyces cerevisiae [2], 0.68.
For RSLYVLLPLYFR, in that order: 0.261 and 0.619.
For RVTMLDAIYFRI, in that order: 0.52 and 0.614.
On the same counts, the results for RVTNLDAIYFRI are 0.55 and 0.677.
Consider RVTREDAIYFRI, for which the protein stability index in the data set on Saccharomyces cerevisiae [1] was determined as 0.625; with Saccharomyces cerevisiae [2], 0.699.
Take RVTRLCAIYFRI: the figures for the protein stability index in the data set on Saccharomyces cerevisiae [1] and in the data set with Saccharomyces cerevisiae [2] were 0.178 and 0.339, respectively.
In the case of RVTRLDAHYFRI, the protein stability index in the data set with Saccharomyces cerevisiae [1] was found to be 0.684; in the data set with Saccharomyces cerevisiae [2], 0.71.
Consider RVTRLDAIEFRI, for which the protein stability index in the data set on Saccharomyces cerevisiae [1] came to 0.704; with Saccharomyces cerevisiae [2], 0.7.
For RVTRLDAIMFRI, the protein stability index in the data set with Saccharomyces cerevisiae [1] was found to be 0.496; in the data set with Saccharomyces cerevisiae [2] it was 0.686.
For RVTRLDAIYFAI, in that order: 0.481 and 0.542.
As to RVTRLDAIYFFI, the figures for the protein stability index with Saccharomyces cerevisiae [1] and in the data set on Saccharomyces cerevisiae [2] were 0.471 and 0.495, respectively.
For RVTRLDAIYFMI, in that order: 0.162 and 0.173.
For RVTRLDAIYFRIL, in that order: 0.0595 and 0.0992.
On the same counts, the results for RVTRLDAIYFRW are 0.472 and 0.709.
Turning to RVTRLDAIYFRY, the results for the protein stability index with Saccharomyces cerevisiae [1] and in the data set on Saccharomyces cerevisiae [2] were 0.447 and 0.722, respectively.
In the case of RVTRLDAIYFVI, the results for the protein stability index with Saccharomyces cerevisiae [1] and with Saccharomyces cerevisiae [2] were 0.194 and 0.233, respectively.
For RVTRLDAIYHRI, in that order: 0.662 and 0.723.
On the same counts, the results for RVTRLDAIYIRI are 0.325 and 0.683.
For RVTRLDAIYQRI, in that order: 0.664 and 0.707.
Take RVTRLDAIYTRI: the protein stability index in the data set on Saccharomyces cerevisiae [1] was determined as 0.688; in the data set on Saccharomyces cerevisiae [2], 0.716.
With RVTRLDAIYYRI, the protein stability index was determined as 0.582 in the data set on Saccharomyces cerevisiae [1] and 0.716 in the data set on Saccharomyces cerevisiae [2].
As to RVTRLDAPYFRI, the protein stability index was 0.676 with Saccharomyces cerevisiae [1] and 0.722 in the data set on Saccharomyces cerevisiae [2].
On the same counts, the results for RVTRLDAQYFRI are 0.668 and 0.683.
On the same counts, the results for RVTSLDAIYFRI are 0.55 and 0.669.
Turning to RVYRLDAIYFRI, the protein stability index stood at 0.321 in the data set with Saccharomyces cerevisiae [1] and 0.587 in the data set with Saccharomyces cerevisiae [2].
For SLYMCSVGCWFR, the protein stability index with Saccharomyces cerevisiae [1] is 0.387; in the data set on Saccharomyces cerevisiae [2], 0.644.
TITLPMCPLLLR: the protein stability index in the data set with Saccharomyces cerevisiae [1] was 0.296; in the data set with Saccharomyces cerevisiae [2], 0.633.
Consider TLYMCSVGCWFR, for which the protein stability index with Saccharomyces cerevisiae [1] came to 0.375; with Saccharomyces cerevisiae [2], 0.614.
On the same counts, the results for TVTRLDAIYFRI are 0.364 and 0.707.
